Article PMC6581707

Tests used:
[1] = biological target: CS/DS 4-O-endosulfatase endoVB4SF from Vibrio sp. FC509 (Vibrio sp. FC509); test: SEC; Superdex 200 10/300 GL, 10 mM Tris-HCl, 100 mM NaCl, pH 8.0, with or without 5 mM DTT; detection at 280 nm; monomer to dimer
[2] = biological target: exoPB4SF-Q5C mutant (Photobacterium sp. FC615); test: as above

stoichiometry N [1]	stoichiometry N [2]	Substance
2		CS/DS 4-O-endosulfatase endoVB4SF from Vibrio sp. FC509 (enzyme)
	2	exoPB4SF-Q5C mutant (enzyme)
